Assay results taken from article PMC8789800.
Where two headings read alike, the source gives them in different places.

What was measured:
activated RSK2 [1] = type: biochemical, Human; conditions: 10 µM GST-fusion substrate, 0.5 µM activated RSK2, no competitor
activated RSK2 [2] = assay: In vitro kinase assay of EIF4B RxxS/T phosphorylation reporters with activated RSK2, Anti-RxxpS/pT Western-blot; conditions: 10 µM GST-fusion construct, 100 nM activated RSK2; mean ± SD, N = 3
[3] = target: double-phosphorylated ERK2 (ppERK2) (human) (UniProt P28482); assay: fluorescence polarisation
ppERK2 → RSK2 = assay: In vitro kinase assay, 10 nM ppERK2 phosphorylating 2 µM RSK2, phosphorimaging; type: biochemical, Human; conditions: 50 µM ORF45 peptide; tested on ppERK2 → RSK2 and MKK1 → ERK2 → RSK2
Method: (§1) Phosphorimaging results are plotted on the panel at the right based on one experiment (N = 1). b In vitro kinase assay results on RSK substrate phosphorylation. […] The schematic panel on the right highlights the hierarchical phosphorylation events (one-end arrows) and the PPIs (two-end arrows) required for NTK mediated phosphorylation of RSK substrates.
Radioactivity based kinase reactions were carried out in 50 mM HEPES, pH 7.5, 100 mM NaCl, 5 mM MgCl2, 0.05% IGEPAL, 5% glycerol, 2 mM DTT using recombinant expressed and purified proteins in the presence of 250 μM ATP and ∼5 μCi of [γ-^32P]ATP. Reactions were stopped with protein loading sample buffer complemented with 20 mM EDTA, boiled, and then subjected to SDS-PAGE. Gels were dried before phosphorimaging by a Typhoon Trio+ scanner (GE Healthcare).

[4] = tested on: RSK2 and ERK2-RSK2 complex; assay: Size-exclusion chromatography with fluorescently labeled ORF45(16-76); type: binding; conditions: peptide labeled with a fluorescent dye
MBP-NTK_RSK2 = type: binding, Human; conditions: GST-fusion preys, 10–20 µM; Coomassie gel; N = 1; ORF45 = GST-ORF45(16-76)
MKP3 = assay: ppERK2 dephosphorylation by MKP3, quantitative Western-blot; type: biochemical, human; conditions: 1 μM ppERK2, 1 μM MKP3; 1 μM RSK2; 1 or 5 μM ORF45(16-76)
Source text: as §1
Sequences of oligonucleotides used for cloning are listed in Supplementary Table 4.

activated RSK2 [5] = assay: In vitro kinase assay of RHDF1(1-289) wild type and F281A with activated RSK2, Anti-RxxpS/pT Western-blot

Sequence of double-phosphorylated ERK2 (ppERK2) (human) (P28482 whole entry): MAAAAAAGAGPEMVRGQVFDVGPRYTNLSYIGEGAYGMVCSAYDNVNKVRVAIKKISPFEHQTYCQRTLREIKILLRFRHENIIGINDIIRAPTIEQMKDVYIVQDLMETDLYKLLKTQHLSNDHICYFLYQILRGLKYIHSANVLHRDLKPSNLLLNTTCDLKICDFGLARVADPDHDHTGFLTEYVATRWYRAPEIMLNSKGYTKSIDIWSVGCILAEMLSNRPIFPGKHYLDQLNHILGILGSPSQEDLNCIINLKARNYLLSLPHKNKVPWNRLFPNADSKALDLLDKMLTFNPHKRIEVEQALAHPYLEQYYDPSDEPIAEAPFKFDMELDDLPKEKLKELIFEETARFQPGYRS

Molecule: 411-ETQERERSRTGSESSQTGTS-430 [RxxSEIF4B]
- initial phosphorylation rate (activated RSK2 [1]; Sample_1): 0.3562
- initial phosphorylation rate (activated RSK2 [1]; Sample_2): 0.455
- initial phosphorylation rate (activated RSK2 [1]; Sample_3): 0.379
- initial phosphorylation rate (activated RSK2 [1]; mean N=3): 0.3967
- RxxSEIF4B phosph. rate (activated RSK2 [2]): 0.03 ± 0.01 arb. unit / min

Molecule: unlabeled ORF45(16-40) peptide
- Kd [3]: 800 nM

Molecule: ORF45(16-76): 61 amino acid long N-terminal ORF45 peptide, expressed as GST-fusion and cleaved; GST-fusion in Fig. 7 and 8
- effect on RSK2 phosphorylation in vitro (ppERK2 → RSK2): blocked RSK2 phosphorylation
- binding in size-exclusion chromatography [4]: binds to RSK2 as well as to the ERK2-RSK2 complex

Molecule: ORF45(16-76)-F66A: VF-motif mutated version of GST-ORF45(16-76)
- binding in MBP pull-down, RSK2 NTK (MBP-NTK_RSK2): did not show detectable binding

Molecule: RSK2: purified human RSK2 added to the ppERK2 dephosphorylation assay
- protection of ppERK2 from dephosphorylation by MKP3 (MKP3): did not protect ppERK2 from dephosphorylation

B1: RHDF: human RHDF1 construct 1-289, wild type (protein, UniProt Q96CC6 1-289, looked up, fragment)
chain: MSEARRDSTSSLQRKKPPWLKLDIPSAVPLTAEEPSFLQPLRRQAFLRSVSMPAETAHISSPHHELRRPVLQRQTSITQTIRRGTADWFGVSKDSDSTQKWQRKSIRHCSQRYGKLKPQVLRELDLPSQDNVSLTSTETPPPLYVGPCQLGMQKIIDPLARGRAFRVADDTAEGLSAPHTPVTPGAASLCSFSSSRSGFHRLPRRRKRESVAKMSFRAAAALMKGRSVRDGTFRRAQRRSFTPASFLEEDTTDFPDELDTSFFAREGILHEELSTYPDEVFESPSEAAL
- initial phosphorylation rate (activated RSK2 [1]; Sample_1): 0.1656
- initial phosphorylation rate (activated RSK2 [1]; Sample_2): 0.1405
- initial phosphorylation rate (activated RSK2 [1]; Sample_3): 0.1427
- initial phosphorylation rate (activated RSK2 [1]; mean N=3): 0.1496
- RxxS motif phosphorylation, Normalized to RHDF_Mean (activated RSK2 [5]; Sample_1): 1.075
- RxxS motif phosphorylation, Normalized to RHDF_Mean (activated RSK2 [5]; Sample_2): 0.9889
- RxxS motif phosphorylation, Normalized to RHDF_Mean (activated RSK2 [5]; Sample_3): 0.9363
- RxxS motif phosphorylation, Normalized to RHDF_Mean (activated RSK2 [5]; mean N=3): 1

B2: SOS1: human SOS1 construct 1101-1170 (legend also 1101-1171) (protein, UniProt Q07889 1101-1170, looked up, fragment)
chain: VCSVFDSDHSSPFHSSNDTVFIQVTLPHGPRSASVSSISLTKGTDEVPVPPPVPPRRRPESAPAESSPSK
- initial phosphorylation rate (activated RSK2 [1]; Sample_1): 1.226
- initial phosphorylation rate (activated RSK2 [1]; Sample_2): 1.21
- initial phosphorylation rate (activated RSK2 [1]; Sample_3): 0.88
- initial phosphorylation rate (activated RSK2 [1]; mean N=3): 1.105

B3: RHDF_F281A: RHDF1_1-289 with the VF motif mutated (F281A) (protein, UniProt Q96CC6 1-289, looked up, variant F281A)
chain: MSEARRDSTSSLQRKKPPWLKLDIPSAVPLTAEEPSFLQPLRRQAFLRSVSMPAETAHISSPHHELRRPVLQRQTSITQTIRRGTADWFGVSKDSDSTQKWQRKSIRHCSQRYGKLKPQVLRELDLPSQDNVSLTSTETPPPLYVGPCQLGMQKIIDPLARGRAFRVADDTAEGLSAPHTPVTPGAASLCSFSSSRSGFHRLPRRRKRESVAKMSFRAAAALMKGRSVRDGTFRRAQRRSFTPASFLEEDTTDFPDELDTSFFAREGILHEELSTYPDEVAESPSEAAL
- RxxS motif phosphorylation, Normalized to RHDF_Mean (activated RSK2 [5]; Sample_1): 0.1221
- RxxS motif phosphorylation, Normalized to RHDF_Mean (activated RSK2 [5]; Sample_2): 0.1251
- RxxS motif phosphorylation, Normalized to RHDF_Mean (activated RSK2 [5]; Sample_3): 0.1185
- RxxS motif phosphorylation, Normalized to RHDF_Mean (activated RSK2 [5]; mean N=3): 0.1219
